Measured values from IntAct's records for PubMed 18820298.

B1: CCAAT/enhancer-binding protein beta (Homo sapiens), P17676-2 (parent)
chain: MEVANFYYEADCLAAAYGGKAAPAAPPAARPGPRPPAGELGSIGDHERAIDFSPYLEPLGAPQAPAPATATDTFEAAPPAPAPAPASSGQHHDFLSDLFSDDYGGKNCKKPAEYGYVSLGRLGAAKGALHPGCFAPLHPPPPPPPPPAELKAEPGFEPADCKRKEEAGAPGGGAGMAAGFPYALRAYLGYQAVPSGSSGSLSTSSSSSPPGTPSPADAKAPPTACYAGAAPAPSQVKSKAKKTVDKHSDEYKIRRERNNIAVRKSRDKAKMRNLETQHKVLELTAENERLQKKVEQLSRELSTLRNLFKQLPEPLLASSGHC

Variants of: B1
Settings: with hdac4_human HDAC4, P56524
hdac4_human HDAC4, P56524, sequence (P56524 whole entry): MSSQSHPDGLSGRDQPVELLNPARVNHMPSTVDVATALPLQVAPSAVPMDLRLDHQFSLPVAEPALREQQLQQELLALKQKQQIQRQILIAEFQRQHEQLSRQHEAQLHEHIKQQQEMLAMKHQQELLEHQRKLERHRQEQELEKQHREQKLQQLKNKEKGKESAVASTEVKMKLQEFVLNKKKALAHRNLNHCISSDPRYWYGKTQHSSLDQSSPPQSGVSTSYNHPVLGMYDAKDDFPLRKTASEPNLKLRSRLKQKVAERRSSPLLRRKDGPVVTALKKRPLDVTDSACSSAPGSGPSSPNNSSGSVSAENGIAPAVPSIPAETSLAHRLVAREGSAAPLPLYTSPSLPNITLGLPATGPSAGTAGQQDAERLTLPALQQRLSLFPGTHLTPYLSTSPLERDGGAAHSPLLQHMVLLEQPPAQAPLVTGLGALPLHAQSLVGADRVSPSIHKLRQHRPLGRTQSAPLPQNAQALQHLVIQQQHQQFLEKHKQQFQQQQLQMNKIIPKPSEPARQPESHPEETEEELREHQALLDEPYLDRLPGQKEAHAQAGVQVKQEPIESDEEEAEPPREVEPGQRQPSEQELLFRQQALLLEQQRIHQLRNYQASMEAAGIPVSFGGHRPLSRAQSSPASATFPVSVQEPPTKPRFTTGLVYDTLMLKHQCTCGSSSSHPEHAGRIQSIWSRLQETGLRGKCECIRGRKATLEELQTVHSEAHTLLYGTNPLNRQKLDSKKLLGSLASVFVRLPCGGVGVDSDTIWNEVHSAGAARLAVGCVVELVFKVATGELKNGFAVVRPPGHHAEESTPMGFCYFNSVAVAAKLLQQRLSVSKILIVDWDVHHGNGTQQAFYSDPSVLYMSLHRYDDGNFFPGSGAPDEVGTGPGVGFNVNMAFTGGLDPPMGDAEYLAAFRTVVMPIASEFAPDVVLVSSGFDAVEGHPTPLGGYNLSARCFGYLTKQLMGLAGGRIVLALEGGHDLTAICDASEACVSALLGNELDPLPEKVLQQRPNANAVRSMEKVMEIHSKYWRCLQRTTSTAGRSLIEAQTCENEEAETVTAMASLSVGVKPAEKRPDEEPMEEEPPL

Variant | effect of a mutation on the interaction
K151A | with no effect
